Patent US20160052996A1 (NEURIMMUNE, published 2016)

These binders were tested against T1, JCV VP1 VLP (JC virus (JCV), Mad-1 strain, UniProt P03089 1-354) (assay: direct ELISA, plate coated with antigen at 5 µg/ml in reassociation buffer (VLP); EC50 by non-linear regression (GraphPad Prism)).
T1 construct: also called JCV VP1 VLPs; JCV VP1 (coating with reassociation buffer)

Binder	EC50 [nM]
NI-307.27C11 (antibody, V domains shown) VH: QVQLQESGPGLVKPSGTLSLTCAVSGDSISSSNWWSWVRQPPGKGLEWIGEIYHSGGTKYNPSLKSRVTISVDKSKNHFSLKLRSVTAADTAVYYCARNRWFDNNRGGYYYYGMDVWGQGTTVTVSS VL: DIQMTQSPSSLSASVGDRVTITCRASQGISSYLNWYQQKPGKAPKLLISATSDLQSGVPSRFSGSGSGTDFTLTISSLQPEDFATYYCQQSYSTPYTFGQGTKLEIK	0.042
NI-307.50H4 (antibody, V domains shown) VH: QVQLQESGPGLVKPSGTLSLTCAVSGDSISSSNWWSWVRQPPGKRLEWIGEIYHSGGTKYNPSLKSRVTISVDKSKNHFSLKLRSVTAADTAVYYCARNRWFDNNRGGYYYYGMDVWGQGTMVTVSS VL: DIQMTQSPSSLSASVGDRVTITCRAGQGISTYLNWYQQKPGKAPNLLIYATSDLQSGVPSRFSGSGSGTDFTLTISSLQPEDFATYYCQQSYNNPYTFGQGTKVEIK	0.055
NI-307.53B11 (antibody, V domains shown) VH: EVQLVQSGAEVKKPGESLKISCKGSGYSFTSYWIGWVRQMPGKGLEWMGIIYPGDSDTRYSPSFQGQVTISADKSITTAYLQWSSLKASDTALYYCARRGSGSFSNYDFWGQGTLVTVSS VL: QSALTQPRSVSGSPGQSVTISCTGTSSDVGAYNYVSWYQQHPVKAPKLMIYDVSKRPSGVPDRFSGSRSGNTASLTISGLQADDEADYYCCSYAGTYTVLFGGGTKLTVL	0.064
NI-307.26A3 (antibody, V domains shown) VH: EVQLVESGGVLVQPGGSLRLSCAASGFTFSSYAMTWVRQAPEKGLEWVSTIIGNGAYTYYADSVKGRFTISRDNSKNTLILQMNSLRADDAAVYYCAKGTELAPYYYYFALDVWGQGTTVTVSS VL: EIVLTQSPGTLSLSPGERATLSCRASQSISSSHLAWYQQKPGQAPRLLIYGASSRATGIPDRFSGGGSGTDFTLTITRLEPEDFAVYYCQQYGSSPYTFGQGTKLEIK	0.049
NI-307.45E10 (antibody, V domains shown) VH: EVQLVESGGGLVQPGGSLRLSCAASGFSFRFYAMNWVRQAPGKGLEYVSGISGGGGTTYYADSVKGRFTISRDNSKNTLYLQMKSLRAEDTAIYYCAKDQSYCSGAGCHPYYLDYWGQGTLVTVSS VL: SYVLTQPPSVSVAPGQTARITCGGNNIGSKSVHWYQQKPGQAPVVVVYDDSGRPSGMPERFSGSNSGNTATLTISRVEAGDEADYYCQVWDSSSDHLYVFGTGTKVTVL	0.024
NI-307.105C7 (antibody, V domains shown) VH: EVQLVESGGGLVQPGGSLRLSCAASGFSFGFYAMNWVRQAPGKGLEYVSGVSGGGGSTYYADSVKGRFTISRDNSKNTLYLQMKSLRAEDTAIYYCAKDQSYCSGGSCHPYYLDYWGQGTLVTVSS VL: SYVLTQPPSVSVAPGQTARITCGGNNIGSKSVHWYQQKPGQAPVVVVYDDSGRPSGIPERFSGSNSGNTATLTISRVEAGDEADYYCQVWDSSSDHPYVFGTGTKVTVL	0.04
NI-307.43E8 (antibody, V domains shown) VH: EVQLVESGGDVVQPGRSLRLSCAASGFAFSIYAMNWVRQAPGKGLEWVALISTSGTEHYADSVKGRFTISRDNSKNTLFLQINSLRVEDTAVYYCARDLDSTGYYENNYWGQGTLVTVSS VL: DVVMTQSPLSSPVSLGQPASISCRSSHSLVHSNGDTYLSWLQQRPGQPPRLLIYKISNRFSGVPDRFSGSGAGTDFTLKISRVEAEDVGVYFCMQATSFPRTFGQGTKVEIK	0.64
NI-307.47B11 (antibody, V domains shown) VH: EVQLVESGGGLVKPGGSLRLSCAASGFTFSDYYMNWIRQAPGKGLEWLSCISSSGNTIYYADSVKGRFTISRDNAKNSLYLQMNSLRAEDTAVYYCARDLDKAATGRPYFDYWGQGTLVTVSS VL: not shown	0.048
NI-307.29B1 (antibody, V domains shown) VH: EVQLVESGGGLVKPGGSLRLSCAASGITFQYYAMNWVRQAPGKGLEWVSSIGGRGDTTYYTDSVKGRFTISRDNSKSTLYLQMNSLRAEDTAVYYCAKEPFDSSGDHRGVFDYWGQGTLVTVSS VL: QSVVTQPPSVSGAPGQRVTISCAGSRSNIGAGYDVNWYQQLPRTAPKLLIYDNTRRPSGVPARFSGSKSGSSASLTITGLQAEDEADYYCQSYDSKLNKVFGGGTKLTVL	0.076
NI-307.72F7 (antibody, V domains shown) VH: EVQLVESGGGLVQPGGSLRLSCAASGFTFSSYEMNWVRQAPGKGLEWISYISSRGSTIHYADSVKGRFTISRDDAKNSLYLQMNSLRAEDTAIYYCARDRYDFWSGCIKGCYYGMDVWGQGSTVTVSS VL: EIVLTQSPGTLSLSPGQRATLSCRASQSISSSYLAWYQQRRGQAPRLLIYGASSRATGIPDRFSGSGSGTDFTLTISRLEPEDFAVYYCQHYGTTLTFGQGTKVDIK	0.019
NI-307.98H1 (antibody, V domains shown) VH: QLQLQESGPGLVKPSQTLSLTCAVSGASISSGTYYWGWIRQHPGKGLEWIGYIYPSGSTYYNPSLKSRVIISLDTSKSQFSLNLSSVTAADTAVYYCARDYYDSSGHMGGYYHYAMDVWGQGTTVTVSS VL: DIQLTQSPSSLSASVGDRVTITCRASQSISSHLNWYQQKPGKVPKLLIYAASTLQSGVPSRFSGSGSGTDFTLAISSLQPADFATYYCQQSYSTPRTFGQGTKVDIK	0.086
NI-307.59A7 (antibody, V domains shown) VH: EVQLVESGGGLVQPGGSLRLSCAASGFTFSSYEMNWVRQAPGKGLEWVSYISSSGTNIYHADSVKGRFTISRDNAKNSLYLQMNSLRAEDTAVYYCARDGPSPRGHNYGHDYWGQGTLVTVSS VL: not shown	0.066
NI-307.72F10 (antibody, V domains shown) VH: EVQLVESGGGVVQPGRSLRLSCATSGFTFDDYAMHWVRQAPGKGLEWVSGLTWSSSGVGYADSVKGRFTISRDNAKNSLYLQMNSLRAEDTALYYCAKGSGEWLRLGQDYWGQGTLVTVSS VL: QSVLTQPPSVSGTPGQRVTISCTGSSSNIGAGYDVHWYQQLPGTAPKLLIYDNSNRPSGVPDRFSGSKSGTSASLAITGLQAEDEAHYYCQSFDSSLSGSVFGGGTKLAVL	0.031
NI-307.105A6 (antibody, V domains shown) VH: EVQLVESGGGLVQPGRSLRLSCAASGFTFDDYAMHWVRQAPGKGLEWVSGITWNSGSIGYADSVKGRFTISRDNAKNSLYLQMNSLSAEDTALYYCAKGARDYLSYGMDVWGQGTTVTVSS VL: QSVVTQPPSVSGAPGQRVTISCTGSSSNIGAGYDVHWYQQLPGTAPKLLIFSNTIRPSGVPDRFSGSKSGTSASLAITGLQAEDEANYYCQSYDSSLSGSVFGGGTKLTVL	0.069
NI-307.57D4 (antibody, V domains shown) VH: EVQLVESGGGLVQPGRSLRLSCAASGFTFDHYAMHWVRQVPGRGLEWVSGVTWNSGIIGYADSVKGRFTISRDNAKNSLYLQMTSLRAEDTALYYCAKGTNDFVSYGLDVWGQGTTVTVSS VL: QSVLTQPPSVSGAPGQRVSISCTGTSSNLGAGFDVHWYQQIPRKAPELLIYGNSIRPSGVPDRFSGSKSGTSASLAITGLQAEDEADYYCQSYDSRLSGSVFGGGTKLTVL	0.053
NI-307.27C2 (antibody, V domains shown) VH: EVQLVESGGGLVKPGGSLRLSCAASGFTFSSYTMNWVRQAPGKGLQWVSSISSSSTYMYYGDSVKGRFTISRDNARNSLYLQMNSLRVEDTAVYYCARYAHDWNVDYWGQGTLVTVSS VL: QSVLTQPPSASGTPGQRVTISCSGGSSNIGSNPVNWFQQFPGTAPKLLIYANTQRPSGVPDRFSGSKSGTSVSLAISGLQSEDEGDYHCAAWDDSLKGWVFGGGTKLTVL	0.052
NI-307.56A8 (antibody, V domains shown) VH: EVQLVESGGGLVKPGGSLRLSCAASGFTFSSYRMNWVRQAPGKGLEWVSSISSSSSYIYYGDSVKGRFTISRDNAKNSLYLQMSSLRAEDTAVYYCARYAHDWNIDYWGQGTLVTVSS VL: not shown	0.041
